B1: 单域抗体 1F3 (VHH, E. coli crude extract) (VHH)
VHH: ESGGGSVQAGGSLRLSCATSTSRFTYGSACMGWFRQSPGKEREQVAGIAMGVVTYYADSVKGRFTISQDNGKNTVDLQMDNLKPEDTAMYYCAAGPAHYNCYSASGGRYNYWGQGTQVTVSS
notes: Expressed from pMECS in E. coli and detected through an HA tag
B2: 单域抗体 212C7 (VHH, E. coli crude extract) (VHH)
VHH: ESGGGLVQPGGSLRLSCATSTSRFTYGSACMGWFRQSPGKEREQVAGIAMGVVTYYADSVKGRFTISQDNGKNTVDLQMDNLKPEDTAMYYCAAGPAHYNCYSASGGRYNYWGQGTQVTVSS
notes: as for B1
B3: 单域抗体 2H3 (VHH, E. coli crude extract) (VHH)
VHH: ESGGGSVQAGGSLRLSCATSTSRFTYGSACMGWFRQSPGKEREQVAGIAMGVVTYYADSVKGRFTISQDNGKNTVDLQMDNLKPEDTAMYYCAAGPAHYKCYSASGGRYNIWGQGTQVTVSS
notes: as for B1
B4: 单域抗体 23G12 (VHH, E. coli crude extract) (VHH)
VHH: ESGGGSVQAGGSLRLSCATSRFTYGSACMGWFRQSPGKEREQVAGIAMGVVTYYADSVKGRFTISQDNGKNTVDLQMDNLKPEDTAMYYCATGPAHYKCYSASGGRYNYWGQGTQVTVSS
notes: as for B1
B5: 单域抗体 21H6 (VHH, E. coli crude extract) (VHH)
VHH: ESGGGSVQAGGSLRLSCATSRWTYGTACMGWFRQSPGKEREQVAGIAMGVVTYYADSVEGRFTISQDNEKNTVDLQMDNLKPEDTAMYYCATGPAHYKCYSASGGRYNYWGQGTQVTVSS
notes: as for B1
B6: 单域抗体 27H4 (VHH, E. coli crude extract) (VHH)
VHH: ESGGGSVQAGGSLRLSCATSRFTYGSACMGWFRHAPGKEREQVAGIAMGVVTYYADSVKGRFTISQDNGKNTVDLQMDNLKPEDTAMYYCATGPAHYKCYSPSGGRYNYWGQGTQVTVSS
notes: as for B1
B7: 单域抗体 1D1 (VHH, E. coli crude extract) (VHH)
VHH: ESGGGSVQVGGSLRLSCATSRFTYGSACMGWFRQSPGKEREQVAGIAMGVVTYYADSVKGRFTISQDNGKNTVDLQMDNLKPEDTAMYYCATGPAHYKCYSASGGRYSDWGQGTQVTVSS
notes: as for B1
B8: 单域抗体 2G5 (VHH, E. coli crude extract) (VHH)
VHH: ESGGGSVQAGGSLRLSCATSRFTYGSACMGWFRQSPGKEREQVAGIAMGVVTYYADSVKGRFTISQDNGKNTVDLQMDNLKPEDTAMYYCATGPAHYNCYSASGGRYNYWGQGTQVTVSS
notes: as for B1
B9: 单域抗体 4B2 (VHH, E. coli crude extract) (VHH)
VHH: ESGGGSVQAGGSLRLSCATSRYTYGSACMGWFRQSPGKEREQVAGIAMGVVTYYADSVKGRFTISQDNGKNTVDLQMDNLKPEDTAMYYCAAGPAHYLCYSASGGRYTSWGQGTQVTVSS
notes: as for B1
B10: 单域抗体 1A7 (VHH, E. coli crude extract) (VHH)
VHH: ESGGGSVQAGGSLRLSCATPRYTYGTSCMGWFRQSPGYQREQVAGIAMGVVTYYADSVKGRFTISQDNGKNTVDLQMDNLKPEDTAMYYCAAGPAHYKCYSASGGRYNYWGQGTQVTVSS
notes: as for B1
B11: 单域抗体 214D11 (VHH, E. coli crude extract) (VHH)
VHH: ESGGGSVQAGGSLRLSCATSRFTYGSACMGWFRQSPGKEREQVAGIAMGVVTYYADSVKGRFTISQDNGKNTVDLQMDNLKPEDTAMYYCATGPAHYKCYSASGGRYDAWGQGTQVTVSS
notes: as for B1
B12: 单域抗体 4F3 (VHH, E. coli crude extract) (VHH)
VHH: ESGGGSVQAGGSLRLSCATSRYTYGSSCMGWFRQSPGKEREQVAGIAMGVVTYYADSVKGRFTISQDNNKNTVDLQMDNLKPEDTAMYYCASGPPHYKCYSASGGRYNYWGQGTQVTVSS
notes: as for B1
B13: 单域抗体 1A6 (VHH, E. coli crude extract) (VHH)
VHH: ESGGGSVQAGGSLRLSCATSRYTYGSSCMAWFRQSPGKEREQVAGIAMGVVTYYADSVKGRFTISQDNGKNTVDLQMDNLKPEDTAMYYCAAGPPHYKCYSVSGGRYNYWGQGTQVTVSS
notes: as for B1
B14: 单域抗体 2D10 (VHH, E. coli crude extract) (VHH)
VHH: ESGGGSVQAGGSLRLSCATSRFTYGSACMGWFRQSPGKEREQVAGIAMGVVTYYADSVKGRFTISQDNGKNTVDLQMDNLKPDDTAMYYCATGPAHYKCYSASGGRYNYWGQGTQVTVSS
notes: as for B1
B15: 单域抗体 1F9 (VHH, E. coli crude extract) (VHH)
VHH: ESGGGSVQAGGSLRLSCATSRYTYNCMGWFRQSPGKEREQVAGIAMGVVTYYADSVKGRFTISQDNGKNTVDLQMDNLKPEDTAMYYCAAGPAHYKCYSPSGGRYNYWGQGTQVTVSS
notes: as for B1
B16: 单域抗体 1H5 (VHH, E. coli crude extract) (VHH)
VHH: ESGGGLVQPGGSLRLSCATSRYTYNCMGWFRQSPGKEREQVAGIAMGVVTYYADSVKGRFTISQDNGKNTVDLQMDNLKPEDTAMYYCAAGPAHYKCYSPSGGRYNYWGQGTQVTVSS
notes: as for B1
B17: 单域抗体 4A1 (VHH, E. coli crude extract) (VHH)
VHH: ESGGGSVQAGGSLRLSCATSRYTYNCMGWFRQSPGKEREQVAGIAMGVVTYYADSVKGRFTISQDNGKNTVDLQMDNLKPEDTAMYYCASGPPHYKCYSASGGRYNYWGQGTQVTVSS
notes: as for B1
B18: 单域抗体 1B7 (VHH, E. coli crude extract) (VHH)
VHH: ESGGGSVQAGGSLRLSCTTSGYTYSSNCIGWFRQAPGKEREEIATISRVGEITFYADSVKGRFTISQDNTETTVFLQMNSLKPEDTAVYYCAASPPTYGGCPTRSRDYDKWGQGTQVTVSS
notes: as for B1

These binders were tested against T1, 人源TSLP蛋白 (Thymic stromal lymphopoietin) (human, UniProt Q969D9 29-159) (assay: ELISA of E. coli crude extract on coated TSLP, anti-HA HRP; positive if OD more than 5 times the control well).
T1 construct: also called 人源重组TSLP蛋白; TSLP重组蛋白

| Binder | binding result |
| --- | --- |
| B1 | binds |
| B2 | binds |
| B3 | binds |
| B4 | binds |
| B5 | binds |
| B6 | binds |
| B7 | binds |
| B8 | binds |
| B9 | binds |
| B10 | binds |
| B11 | binds |
| B12 | binds |
| B13 | binds |
| B14 | binds |
| B15 | binds |
| B16 | binds |
| B17 | binds |
| B18 | binds |

From CN117327176A (NANJING RONGJIEKANG BIOTECHNOLOGY CO LTD, dated 2024)
